# Test results as given in patent publication US7988958B2, “Enterococcus and Streptococcus strains and bacteriocins” (The United States of America as represented by the …, priority 2005, dated 2011).
# Where “and” joins values, the source holds several entries; their conditions need not be identical. Equal entries are not always repeated. Where two headings read alike, the source gives them in different places.
# Columns and labels:
# [1] = Isoelectric focusing (pI); type: physicochemical; settings: for pI of the band with antimicrobial activity: pure bacteriocin, gel overlaid with Campylobacter jejuni
# E. coli O157:H7 lab. 39 = assay: MIC by spot test; type: cell-based
# Y. enterolitica 09 = assay: MIC by spot test; type: cell-based, Y. enterocolitica
# C. jejuni NCTC 11168 = assay: IEF gel tested for growth inhibition of test strain; type: cell-based, Campylobacter jejuni; settings: for Inhibiting Activity measured by IEF: CAP, active band, C. jejuni NCTC 11168; for Inhibiting Activity IEF: purified bacteriocin, C. jejuni
# Description: CAPs and bacteriocins were electrophoresed in about 15% […] gel weight, about 1% SDS (9×12 cm) in Tri-glycine buffer. After electrophoresis at about 100 mA for approximately 4 hours, gels were fixed with a solution containing approximately 15% ethanol and approximately 1% acetic acid. The gels were then washed with distilled water for approximately 4 hours. To determine molecular weights of protein fractions, the gel was stained with a solution containing approximately 0.21% Coomassi Blue G-250, about 40% ethanol, and about 7% acetic acid. Washed gels were tested against three target bacteria, C. jejuni NCTC 11168, E. coli 0157:H7 904, and S. enteritidis 204 by the method of Bhunia et al. (Journal of Industrial Microbiology, Volume 2, 319-322, 1987; herein incorporated by reference). The gels were placed in Petri dishes, covered with 5% blood-semi-solid Campylobacter agar (about 0.75%) or semi-solid MPA, and seeded with cells of the test strains. Plates containing C. jejuni were incubated at about 42° C. for approximately 48 hours under microaerobic conditions, E. coli 0157:H7 and S. enteriditidis at about 37° C. for approximately 24 hours. Assessment was based on visualization of zones of the inhibited growth of the test strains in the presence of bacteriocins.
# Specimens of bacteriocins were placed on IEF gels (pH approximately 4.4-10.0) (Novex, San Diego, Calif.). The gels were run at about 100V for about 1 hour, 200V for about 2 hour, and 500V for about 30 minutes in XCM II™ Mini-Cell (Novex). Gels were washed with distilled water for about 4 hours without fixation followed by staining with Coomassie Blue G-250 to determine isoelectric points (pI) of the bacteriocins and their ability to inhibit the growth of the test strains as presented in FIGS. 1 and 2 and in Table 2.
# S. typhimurium 383/60 = assay: MIC by spot test; type: cell-based
# E. coli O157:H7 OD-3 = assay: MIC by spot test; type: cell-based
# S. enteritidis 237 = assay: MIC by spot test; type: cell-based
# C. jejuni = assay: Activity of bacteriocin preparations from culture with and without inducer strain (arbitrary units); type: cell-based, Campylobacter jejuni
# S. enteritidis 204 = assay: MIC by spot test; type: cell-based
# Campylobacter spp. G-1 = assay: MIC by agar diffusion; type: cell-based; settings: Campylobacter spp. strain G-1
# Description: (§1) The susceptibility of Campylobacter spp. to purified preparations of bacteriocins 760 and E50-52 was determined using strains isolated from broiler chicks as described above in Example 1. Antagonistic activity of the bacteriocins was assessed on the basis of minimum inhibitory concentrations (MICs) which were determined by agar diffusion. […] All the tested bacteriocins are highly antagonistic to the Campylobacter spp. strains.
# Campylobacter spp. Cez-4 = assay: MIC by agar diffusion; type: cell-based; settings: Campylobacter spp. strain Cez-4
# Description: as §1
# Campylobacter spp. P-27 = assay: MIC by agar diffusion; type: cell-based; settings: Campylobacter spp. strain P-27
# Description: as §1
# Campylobacter spp. K-10 = assay: MIC by agar diffusion; type: cell-based; settings: Campylobacter spp. strain K-10
# Description: as §1
# Campylobacter spp. P-28 = assay: MIC by agar diffusion; type: cell-based; settings: Campylobacter spp. strain P-28
# Description: as §1
# Campylobacter spp. P-31 = assay: MIC by agar diffusion; type: cell-based; settings: Campylobacter spp. strain P-31
# Description: as §1
# Campylobacter spp. G-2 = assay: MIC by agar diffusion; type: cell-based; settings: Campylobacter spp. strain G-2
# Description: as §1
# [2] = system: Campylobacter spp. Ind18/2; assay: MIC by agar diffusion; type: cell-based; settings: Campylobacter spp. strain Ind18/2
# Description: as §1
# Campylobacter spp. P-32 = assay: MIC by agar diffusion; type: cell-based; settings: Campylobacter spp. strain P-32
# Description: as §1
# Campylobacter spp. F-1 = assay: MIC by agar diffusion; type: cell-based; settings: Campylobacter spp. strain F-1
# Description: as §1
# Campylobacter spp. P-2 = assay: MIC by agar diffusion; type: cell-based; settings: Campylobacter spp. strain P-2
# Description: as §1
# Campylobacter spp. I/U-1 = assay: MIC by agar diffusion; type: cell-based; settings: Campylobacter spp. strain I/U-1
# Description: as §1
# Campylobacter spp. B-3 = assay: MIC by agar diffusion; type: cell-based; settings: Campylobacter spp. strain B-3
# Description: as §1
# Campylobacter spp. P-24 = assay: MIC by agar diffusion; type: cell-based; settings: Campylobacter spp. strain P-24
# Description: as §1
# Campylobacter spp. P-21 = assay: MIC by agar diffusion; type: cell-based; settings: Campylobacter spp. strain P-21
# Description: as §1
# S. enteritidis 1 = assay: MIC by spot test; type: cell-based
# Morganella morganii = assay: MIC by spot test; type: cell-based
# Klebsiella pneumoniae = assay: MIC by spot test; type: cell-based
# [3] = system: Pseudomonas aeruginosa 25583; assay: MIC by spot test; type: cell-based
# Sh. dysenteriae = assay: MIC by spot test; type: cell-based
# S. typhimurium 320 = assay: MIC by spot test; type: cell-based
# S. choleraesuis 434/4 = assay: MIC by spot test; type: cell-based
# L. monocytogenes 9-72 = assay: MIC by spot test; type: cell-based
# Citrobacter freundi = assay: MIC by spot test; type: cell-based
# [4] = cultivation with inducer strain
# [5] = cultivation without inducer strain
molecule,measurement,setting,value
Bacteriocin 50-52: bacteriocin produced by Enterococcus durans/faecium/hirae NRRL B-30746 (strain 50-52); amino acid sequence SEQ ID NO 1 (TTKNYGNGVCNSVNWCQCGNVWASCNLATGCAAWLCKLA; listed as Enterococcus faecium),IEF (pI),[1]; [4],8.4
same,IEF (pI),[1]; [5],8.4
same,IEF (pI),[1]; isolated by Method A,8.4
same,IEF (pI),[1]; isolated by Method B,8.4
same,pI of the band with antimicrobial activity,[1],about 8.4
same,MICs,E. coli O157:H7 lab. 39,0.1 µg/mL
same,MICs,Y. enterolitica 09,0.4 µg/mL
same,Inhibiting Activity measured by IEF,C. jejuni NCTC 11168,band 1
same,Inhibiting Activity IEF,C. jejuni NCTC 11168,+Band 1
same,MICs,S. typhimurium 383/60,0.1 µg/mL
same,MICs,E. coli O157:H7 OD-3,0.1 µg/mL
same,MICs,S. enteritidis 237,0.1 µg/mL
same,Activity AU/ml,C. jejuni; [4],"12,800 AU/ml"
same,Specific Activity AU/mg,C. jejuni; [4],"320,000 AU/mg"
same,Activity AU/ml,C. jejuni; [5],"3,200 AU/ml"
same,Specific Activity AU/mg,C. jejuni; [5],"213,333 AU/mg"
same,MICs,S. enteritidis 204,0.2 µg/mL
same,MICs,Campylobacter spp. G-1,0.05 µg/mL
same,MICs,Campylobacter spp. Cez-4,0.1 µg/mL
same,MICs,Campylobacter spp. P-27,0.1 µg/mL
same,MICs,Campylobacter spp. K-10,0.05 µg/mL
same,MICs,Campylobacter spp. P-28,0.1 µg/mL
same,MICs,Campylobacter spp. P-31,0.1 µg/mL
same,MICs,Campylobacter spp. G-2,0.1 µg/mL
same,MICs,[2],0.05 µg/mL
same,MICs,Campylobacter spp. P-32,0.1 µg/mL
same,MICs,Campylobacter spp. F-1,0.1 µg/mL
same,MICs,Campylobacter spp. P-2,0.05 µg/mL
same,MICs,Campylobacter spp. I/U-1,0.05 µg/mL
same,MICs,Campylobacter spp. B-3,0.05 µg/mL
same,MICs,Campylobacter spp. P-24,0.05 µg/mL
same,MICs,Campylobacter spp. P-21,0.05 µg/mL
same,MICs,S. enteritidis 1,0.1 µg/mL
same,MICs,Morganella morganii,3.2 µg/mL
same,MICs,Klebsiella pneumoniae,0.2 µg/mL
same,MICs,[3],3.2 µg/mL
same,MICs,Sh. dysenteriae,0.4 µg/mL
same,MICs,S. typhimurium 320,0.1 µg/mL
same,MICs,S. choleraesuis 434/4,0.1 µg/mL
same,MICs,L. monocytogenes 9-72,0.2 µg/mL
same,MICs,Citrobacter freundi,0.1 µg/mL
"Bacteriocin 760: bacteriocin produced by Enterococcus durans/faecium/hirae NRRL B-30745 (strain 760); amino acid sequence SEQ ID NO 2 (protein, listed as Streptococcus cricetus) NRWYCNSAAGGVGGAAVCGLAGYVGEAKENIAGEVRKGWGMAGGFTHNKACKSFPGSGWASG",IEF (pI),[1],9.5
same,IEF (pI),[1]; isolated by Method A,9.5
same,IEF (pI),[1]; isolated by Method B,9.5
same,pI of the band with antimicrobial activity,[1],about 9.5
same,MIC,E. coli O157:H7 lab. 39,1600 µg/mL
same,MIC,Y. enterolitica 09,100 µg/mL
same,Inhibiting Activity measured by IEF,C. jejuni NCTC 11168,band 1
same,Inhibiting Activity IEF,C. jejuni NCTC 11168,+Band 1
same,MIC,S. typhimurium 383/60,400 µg/mL
same,MIC,E. coli O157:H7 OD-3,1600 µg/mL
same,MIC,S. enteritidis 237,200 µg/mL
same,Specific Activity AU/mg,C. jejuni,"160,000 AU/mg and 284,444 AU/mg"
same,MIC,S. enteritidis 204,200 µg/mL
same,MICs,Campylobacter spp. G-1,0.05 µg/mL
same,MICs,Campylobacter spp. Cez-4,0.1 µg/mL
same,MICs,Campylobacter spp. P-27,0.05 µg/mL
same,MICs,Campylobacter spp. K-10,0.05 µg/mL
same,MICs,Campylobacter spp. P-28,0.05 µg/mL
same,MICs,Campylobacter spp. P-31,0.05 µg/mL
same,MICs,Campylobacter spp. G-2,0.05 µg/mL
same,MICs,[2],0.05 µg/mL
same,MICs,Campylobacter spp. P-32,0.05 µg/mL
same,MICs,Campylobacter spp. F-1,0.05 µg/mL
same,MICs,Campylobacter spp. P-2,0.05 µg/mL
same,MICs,Campylobacter spp. I/U-1,0.05 µg/mL
same,MICs,Campylobacter spp. B-3,0.05 µg/mL
same,MICs,Campylobacter spp. P-24,0.05 µg/mL
same,MICs,Campylobacter spp. P-21,0.1 µg/mL
same,MIC,S. enteritidis 1,200 µg/mL
same,MIC,Morganella morganii,3200 µg/mL
same,MIC,Klebsiella pneumoniae,3200 µg/mL
same,MIC,[3],400 µg/mL
same,MIC,Sh. dysenteriae,100 µg/mL
same,MIC,S. typhimurium 320,200 µg/mL
same,MIC,S. choleraesuis 434/4,400 µg/mL
same,MIC,L. monocytogenes 9-72,100 µg/mL
same,MIC,Citrobacter freundi,1600 µg/mL
